From the supplement of paper PMC9732359
± gives the uncertainty stated by the source.

assay: protein stability index of a GFP-peptide fusion (yeast GPS) (PSI 1-4); higher = more stable; sorted into four equal gates, so the index is relative within each strain; conditions: doa10∆
In short: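 For each peptide, the protein stability index sums the read frequency in every gate after multiplying it by the gate number. Read frequencies came from plasmids that were PCR-amplified from each gate and Illumina-sequenced, with reads assigned to strains by barcodes. The gates were four equal bins of GFP/Cherry fluorescence ratio applied to mid-log yeast in leucine-free medium carrying a pooled library of tiled 17-residue yeast protein peptides fused downstream of GFP on a Cherry-expressing plasmid.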

Sequence | protein stability index
INPESREIVMPAHTKYM [ITC1] | 1.63 ± 0.17

same assay, conditions: pdr5∆

Sequence | protein stability index
HKSPNLSLMLESPNYCN [SRB4] | 2.65 ± 0.1
HLGERAASVIGMLVALG [RPC82] | 1.71 ± 0.1
HLLVQLQKNDVYAFKAK [REC8] | 2.99 ± 0.064
HLMSWSKTGIIAYSDSQ [SIN4] | 1.59 ± 0.15
HLRSNILKDLIYRGVLN [SMC1] | 1.78 ± 0.085
HNKLNITSDALEGITTT [SMC3] | 3.09 ± 0.15
HNLHPQIGQVPLAPAPI [SNF5] | 2.23 ± 0.065
HPGFGCWLSSVDVNTQK [RPN11] | 1.25 ± 0.24
HPQDFGNPGRIRVLFKE [SEC65] | 2.94 ± 0.11
HQFHDILEEKTDLHLPK [NSL1] | 2.29 ± 0.065
HRLLQRALFRQLKRWYW [RMP1] | 1.2 ± 0.12
HRSKKDQDQYLEIAKDF [IRR1] | 3.21 ± 0.12
HSGELMRQQSKELQQLQ [SMC1] | 2.98 ± 0.13
HSISEAENMLEELRGQQ [SMC4] | 2.52 ± 0.18
HSNLEKISNSKLLSLLR [SIR4] | 2.65 ± 0.052
HTPMVNFESISARSSVH [SRB8] | 1.97 ± 0.032
HTQDIIGGMRVDENGDP [RET1] | 3.32 ± 0.073
HTSSNSREIAQPSSSRY [SMB1] | 2.97 ± 0.065
HVKVNDKKEMTIYNNIR [SIR3] | 2.91 ± 0.062
HVPEKKSTDLTPKGNES [MTR3] | 2.43 ± 0.13
HWNLPGERIFNKIRNLE [SIR2] | 3.23 ± 0.097
IAAGTYGKVYKAKRQIN [SSN3] | 2.03 ± 0.043
IAFDDLIENKIQNKKIQ [RPN8] | 2.25 ± 0.081
IAIAGTGQIEGLLDYMR [COR1] | 3.54 ± 0.081
IAKLSVIPIRRGYWGTN [RPS2] | 1.67 ± 0.11
IALGEDIGKEMSLRHFG [RPN1] | 3.07 ± 0.11

Sequence | protein stability index
IALNLDTTVNDCLDKLL [SNF2] | 3.06 ± 0.14
IAMPKRRMAFKPFGSAK [YLR335W/NUP2] | 3.09 ± 0.064
IANMVLPPEKIYSPLHS [SIR2] | 1.99 ± 0.036
IASTLGPSAMRLSRCIR [RPC82] | 2.46 ± 0.08
IAYSDSQSSNANICLTF [SIN4] | 2.7 ± 0.065
IDEIAYLFHNDRIIHTW [ECM29] | 1.43 ± 0.054
IDEKSQFVETIVSKSIE [RPN2] | 2.19 ± 0.1
IDETMMDKPLNFRILKS [SRB5] | 3.09 ± 0.13
IDLEAPVQIVKRITQIT [RPS20] | 2.23 ± 0.2
IDMHLIYGVEWLIEGKL [YDL116W/NUP84] | 2.58 ± 0.093
IDNYITNSVRLFEVNPS [SRP21] | 2.78 ± 0.088
IDQAHVSEITKLKFFPS [RPN14] | 3.01 ± 0.071
IDREGNARKVVGASVVV [RPS12] | 2.75 ± 0.25
IDRGLFRSLFFRSYMDQ [RPB2] | 2.88 ± 0.27
IDSINGPDTKGQLEDFD [SMC3] | 3.29 ± 0.11
IDSSNLPLQAQQQLYGG [SWI1] | 3.1 ± 0.062
IDYSNSQIRLYAKFKRN [RGR1] | 2.46 ± 0.1
IEAASTTQDQCKLTLDI [RPB8] | 3.12 ± 0.077
IEAGRAALYKEVYNVIA [RPO21] | 1.88 ± 0.096
IEAIDEYNKPNSEKFVF [ISW2] | 2.76 ± 0.075
IEGMEQRIIKELSIRFP [ARP7] | 3.21 ± 0.12
IEKTESVDKKVDSGEER [SWI3] | 3.3 ± 0.14
IELIDYDKLPAGQNATV [RET1] | 1.95 ± 0.079
IELLSYLVEAPWNDDYP [YML103C/NUP188] | 2.04 ± 0.15
IEPLEINIQSFKDVEHI [BRR2] | 2.31 ± 0.062
IEQLFPVRPVRVRHEDV [RPC53] | 2.97 ± 0.048

Sequence | protein stability index
IERLTKRQFNNSYWLII [ITC1] | 2.62 ± 0.099
IESFVELGVSIYDFPGT [NUT2] | 3.07 ± 0.095
IFCVGSGQTFAYGVLDS [PRE2] | 2.04 ± 0.11
IFGSGFGSADDTYPYLT [FAS1] | 1.74 ± 0.059
IFHPMIHYSWSFILYYR [YML103C/NUP188] | 1.68 ± 0.032
IFNSNKAKIIPGNGKHA [SIR4] | 3.13 ± 0.2
IFSYGPHIQKMLSILEI [POP6] | 1.93 ± 0.067
IFSYLQFTSSLFKALKV [RGR1] | 1.3 ± 0.052
IFTDFLPSSNGSSRIIA [RRP42] | 2.89 ± 0.084
IGEFNVSMYQNSSTSST [YDL088C/ASM4] | 1.97 ± 0.13
IGFTIKEYENHSGELMR [SMC1] | 2.79 ± 0.059
IGGMRVDENGDPIWQHQ [RET1] | 3.38 ± 0.19
IGHLIKTRFKGSQFIVV [SMC2] | 3.05 ± 0.084
IGQIIFSVRTKDSNKDV [RPL10] | 2.49 ± 0.048
IHEIRLNTLNNVVEIWV [SIR3] | 1.44 ± 0.046
IHIQETQEFSKNYTTET [SIR3] | 3.15 ± 0.11
IHLNELLTNDESAFENL [SNF12] | 2.91 ± 0.052
IHSGVLSSIESDLKKRE [YMR153W/NUP53] | 3.17 ± 0.073
IIAVKGSGSRLNRLPAA [RPL23A] | 1.17 ± 0.049
IIDHIPGHSLLLSIKLP [SNF5] | 1.61 ± 0.045
IIEQLSIAAERYDYSDE [YCG1] | 2.78 ± 0.063
IIFNYVPGPGTKLIQYE [CSL4] | 2.99 ± 0.1
IIGTFSDSYKVSLQNFS [RRP40] | 1.79 ± 0.079
IIKGTDVYSPEKGSWEQ [BRR2] | 3.35 ± 0.075
IIKMTIPYAAKLLFQEL [RET1] | 2.08 ± 0.12
IIKYPVAFDNINTHIET [SNF2] | 2.71 ± 0.11

Sequence | protein stability index
IILKTRQINKLIDSLPG [SRB7] | 2.11 ± 0.047
IIPTTLEEQQQLEDESS [YML103C/NUP188] | 1.66 ± 0.08
IISSNENALIELKNELA [YIL149C/MLP2] | 2.93 ± 0.077
IKDEIDDPFTKINTRGA [SWI1] | 1.58 ± 0.1
IKKKKKKSKNGTISKTG [SRP14] | 3.17 ± 0.15
IKLDRWLMEGSYQKAWD [RPN12] | 2.8 ± 0.098
IKNLTVQLSPSNPQHII [RGR1] | 2.74 ± 0.05
IKSKADAWVSAAHYNRE [PRP8] | 1.48 ± 0.065
IKSQYYSRISKLKQLLD [YIL149C/MLP2] | 1.87 ± 0.11
IKTFLVDLTSSNFADSA [YDL116W/NUP84] | 2.82 ± 0.094
IKTQQHILPEVPPVENF [TAF14] | 2.42 ± 0.082
ILGMLSLADNEIALKGL [YCS4] | 2.08 ± 0.068
ILHVRAQYCYKNGLYQE [SRP72] | 2.94 ± 0.095
ILKEEFPKIDSLAQNDC [RPN5] | 3.24 ± 0.091
ILMQQQMMARMAQTATQ [SRP54] | 2.22 ± 0.1
ILQILNLMILNTKVPVD [YML103C/NUP188] | 1.51 ± 0.07
ILSVKLAELINMTTIAD [SRB6] | 2.46 ± 0.076
ILTPESQLKKSKAQQKT [RPL7A] | 3.02 ± 0.12
ILYGLVDKGAIMKNKDF [YJL039C/NUP192] | 2.32 ± 0.2
IMRILKSNGLAPEIPED [RPS13] | 3.09 ± 0.15
INAEEIVDFTLPPPPPP [PRP8] | 3.06 ± 0.053
INGWELTKAQKYLEQVL [RPL17A] | 3.44 ± 0.053
INHTILGKLQDVFNLLP [RPN8] | 3.17 ± 0.081
INKQRVPLSDNAIIEAN [RPL7A] | 2.61 ± 0.064
INLRKVAEKMNGCSGAD [RPT6] | 2.25 ± 0.28
